Laboratory results as given in the domain aggregation screens of Martell et al. (2025).

Assay: soluble fraction after stress (log2 fold change); higher = more stays soluble; pooled small domains, quantitative proteomics
Conditions: stress: 75 degC
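Note: 20 min heating vs room temperature control held 20 min.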

Row | Sequence | soluble fraction (log2)
1 | HMTISAQAITPRLEVIKNFVLMEEWDAAQTQLEKLRSFTEIWSLDPLFSAMKKKDGQKISDWITGFIKDNM | -2.39
2 | HMTISDEAMQAGRDAFIQALVAMGAEKNADAMASIEKALSADPGNKEYLATRDLIKKSMGMKK | 0.981
3 | HMTISGSDLKAQREALNIPLERIAKETRIRLSILQDLEDEEYSELSSSAQTKGFLRLYADYLSSHKQRLG | -1.06
4 | HMTITDDETHKVLEEGASRMSEGLTFRDLVDLDRLHLTARGVIQKVLNENRIDADVDTIANMAQKLVARVS | -0.0881
5 | HMTKAEVLLDLQQRIISEEFLPGSWLVERDLSSEYGLSRTPIREILNKLVILGLISVQKNRGYQVR | -1.29
6 | HMTKAILTANDVRNGDIVFWTADQRWSTSIDDAAIGYGKDDTDQLADAGKQAEAANTVVGAYLIALR | -0.102
7 | HMTKASEELYFRLKEELGTGVIVEHKKYGEGVVTQLDDRLVHIMFQDDTLRMMDLKILANAGLLKVK | -1.57
8 | HMTKDYVVIYEGLAQTEAVEILGKLQEMGVSAKVDHNDSILVLKDEEDQIRMALATEGYPKS | 0.158
9 | HMTKEEKEKREKYEKLMKKADELVTAKNHKEAVTVLGQAKAYANPQQTKEIEEKIKAQTAELDKG | 0.548
10 | HMTKGVQMFAEQLKRTRQSRHYSQAEIASKLGVTQQAIAKWETGVSTPSPTSISKLSDILGISTDVLLKGA | 0.0396
11 | HMTKIAFPQMLNKYRLQKNLTMEQLAEEVGKTKSTISKWEAGTRSPKIYEIEEIAKYFGVEPQTMMF | -0.107
12 | HMTKINAPMPGNILDVKVNVGDHVEANQLVLMLEAMKMENEIFTPVAGTVVGVHVKKGDSVNSDDLLISI | -0.512
13 | HMTKKEFLDILTESLAGNVPASEIEENIRYYKDYIENGEESEEKALEQLGDPHLIARTIIDSFIA | -0.0899
14 | HMTKLLSALQADKFAKKLANDTNFGSNFARMGESAMDFTNRLVEELQRDEGKVANYMPYLTKLGF | 0.204
15 | HMTKLSPKEKSILHIIGDNAGIKSGQIAKRLDIPSPTVKRILSDLVSQNLIEKFGTGPGTNYSI | -0.0131
16 | HMTKLTTDERSVYLHIQNKPGVSASSIREALGYKKSKLTSILAQLLEVHKIIDTEGTGKSLKYIL | 0.0994
17 | HMTKMTPNRQLVLSVLQSSGKPLSAYELLDRLREQGTQWQPPTAYRALDYLVEQGLAHYLQSIQKYV | -1.73
18 | HMTKNEFLASFQNELQKRHIPDWEDVVSEYEQHFALKQADGFSEEEIAAKLGAPAELAAQFEA | 0.155
19 | HMTKQIILVHVAGKVKKPDVYPLLQGSRVADAIKAAGGAKKGVELNDINLARVLIDGEQVFVGYVPE | -2.2
20 | HMTKQRSAIMNLLAERNTPLTAEEIGEAIAPSYPKLALSTVYRNLELFTNAGLLEKSFFQDGITRYSLTK | -0.976
21 | HMTKRTEPSILQNFDTEIAELIAKNRGISIMDALRIFLASKTHEMLENDEMKLWYFSPLAVFDMWENE | 0.318
22 | HMTKSIDFDFREDGVYIKADKDVTIVDIVTKIDLRRIQSVDLTKIKQMLEIGSLDNWIKIAEPQMEK | -2
23 | HMTKSTLQRQKIIADLIESGNISSQNQLKGLLKKNSLLITQATLSRDLSELGAIKKRQKDGLLVYVLPK | -0.365
24 | HMTKTKADKIDYAIGDSGTEPPTEDKWTDLAHLPLIKAGQFQWTRRTEYYSDGSTAVSYNIAKSE | 0.096

Row | Sequence | soluble fraction (log2)
25 | HMTKYKEIVDQLRTNIYEGVFPALSKLPEQTALAKRFQTSRMTIQKALNQLKQEGLISTKRGHGTYVNSAT | -0.74
26 | HMTKYVEGQKYVFEFRDGTITIGTYLRTGEGNIYIKDLSGEDIYIPKIMIAQIHLATDDNVKGDEFWF | -1.26
27 | HMTLDSLEKLSVNDLEKMLVNMPVGYKTIFLLSVIDEYSHKEIGELLGITPETSRSQLFRAIKWIKTNIF | -0.631
28 | HMTLGARTLAAIQSLPKVQQAVFTMKHFEGLKYREISQITGTSEGALKASYHIALEKIKAFLREK | -2.18
29 | HMTLGEHILQYRTARGWSQEDLANALEVSRQSVSKWETDASTPELDKIVRLSEIFQVSIDELVTGKA | -0.316
30 | HMTLGENLQNLRKEAGLSQEQVAQQLFVSRQTVSKWENNLAEPGVENLKALARLYGVTLDRLVGM | -0.223
31 | HMTLKVQLSEISKMVSLSYIAKKYFNKSQSWLSQRINGNTIHNKPAKFTSEELATLQFALKDIGNILNSTV | -2.6
32 | HMTLLVPASKEAILGGLAKIDALKVILKPEKDYSKTHAMTIGTKDEVIAKLDSFLSGMDSEKNQVLIQEYM | 0.456
33 | HMTLSDIGHAVRTRRTELGLSQVQLARLSGLSRQTLVGLENGTLNDLGINRVAQLLAVLGLDAP | -2.02
34 | HMTLSHAINRLRLNANMSQEQFAGLFHVSQQSVQKWESGDSVPELSKLIAIAKHFGISLDALILGN | -2.52
35 | HMTLTEQQITDNYKELRKIINDTFSGLRLDKLNHMYDDLEDRMVVAPASSVEHYHNSKVGGYVEHILHVI | -0.124
36 | HMTLTIEDGYVNAKLKTTVEGLAEDSTIKVDSIEYTNAGKNDILTVFVEDKPYRVEKYKINIAPEDS | 0.139
37 | HMTLVSALDQKTKDSAYYRGTYLAGKISAGKMTKQEAVADIMKNYDGNTAAMKVAAEKAGVSDLLSQTVL | 0.0489
38 | HMTMKQVFIETDANVNQKIMLNEKEAHHLFDVLRTSDKETIRVVTNTSQVFLARVQQKPYIYLFDKMTVE | -2.49
39 | HMTMNYFIIENNQQVGPLTLEQLVARNITSDTLVWKEGMEDWQPAWKVDELHTVLDQIRANAEQ | -0.00196
40 | HMTMVVIMNADATQADIEGVISAIEEKGLEAKVMEGAHQKIVGVIGDKTKLAATPLDAMHGVETTVAIS | -0.244
41 | HMTNATVGQIKKLARASILYGNSNLSGNRYTYKANTTVTILQNISSNVDKIRVNVTGRVAYIDNSNYSSST | -3.59
42 | HMTNEQLSKAKSWVQIAVYAAEKLYGAGNGDQKLVYAEEILRKHGIRLDTATLKAMIDAQIKEMEN | -1.01
43 | HMTNEWRKILSNLNGKYQIVMELFYVDGFSTKEIARMLHITEVNVRSRMVRGRKQLEQILTVR | -0.0301
44 | HMTNPPITTEARNLVVEQLKELNALHPEKARELADSYKKEFNVPKVIGHITEARHGEFLALAISKIDES | -0.241
45 | HMTNPPTPADTLFNTVRGVLQSILKSPMKDTEVASALNVSKAQARSWLQRLSDEGLIEKRKNPTAYVL | -0.592
46 | HMTNTYEVIKNDIIFGVLPPLKKLKLLELKKKYITSVSTLREILSRLSGDGFVVSKEQKGFYVSAV | -0.0741
47 | HMTNVNSLIGKKAIVIQDIDNLKSTGQVKIGGEIWSAQSESNDIISKDTEVEIVKIDGVKLIVRLVPV | -0.153
48 | HMTNYNTEKIIPEEQAGKRLDVVLANIFPEFSRSRLKNWIIDGFILVDGKVLRPRDFVTGGELVSIDVIV | -0.123

Row | Sequence | soluble fraction (log2)
49 | HMTPADEAGNDLDIGQTVKILRRVSEGQYEVSYRGTTWQARALNAQAAVEPSFAVIGGKEGNILLVHL | -0.202
50 | HMTPDVAEFRERLRQILPGEQIEVRTANDGIVLSGTVSSIARLDAALQLAERYAPSRVSNLMSVG | 0.00274
51 | HMTPEPVREALTFQEGRVFALAAKNMTNAEIAQSLSLKLKTVENYMSIIYQKLALKNRYELLVYARKSGV | -0.576
52 | HMTPESSLHSGLGKILHDALTAKIQLTNFEAKFLSDMQSKYDLNGSFSWLSSKQQTTLEKILAKYGR | -1.98
53 | HMTPFLVRVDISDLNIRTGAGTNYSRTGQYTGKGIFTILEVKSGQGSDAGWGRLKSGAGWISLDYTTR | -2.84
54 | HMTPIELIEKTIELIENERKVQKLQQKELALKADIPFPTYKDFIYKKRASLENILKLFIALRLF | -0.384
55 | HMTPKVAVPSFVGWKFEDVERQLGTMGLIRGKVDNHPSEEYSEGRVIWQSVLGEVEKGKVIDFWVSTGPE | 0.0612
56 | HMTPNATWQDDAQSLLRDLIQHQPVLIQISAAKRLRDQAEQISRITGGDTVTRDHVEAAGHALGMGVT | -0.0233
57 | HMTPPLSKIRNMTPDQQRSSVIEARKKGYNLLQLEGLAKAQGATPADLLVLRNAWAQSEFDQKR | 0.067
58 | HMTPQVALNDTETAIYEKMKQEKQMLLGELRAQFDISNKLWDTSLKTLTKNQLLAVSKEDDLLFVKL | -0.195
59 | HMTPQVTVPDVTGQSFASAKQVLESLGLTVKQQGSTGENDKVIGQNPTSGNADKGATITLTTQDS | 0.536
60 | HMTPSTVQVHVAGAVKNPGVYVLLENARNIDAITAAGGATSEADLERINLSEFIRDGQRVYVPYKGDPI | 0.459
61 | HMTPTITNALEEAEKAVSEVQEGKKEIELTPQGAYIRHLQHAIADRYGISSTSTGRDPKRKVIIY | -0.578
62 | HMTPTNILIVEDEKEIRRFVRTALESEGLRVFESETLQRGLIEAGTRKPDLIILDLGLPDGDGLSYIRDLR | -0.0383
63 | HMTPTRQATVSVAALNVREQPSLQGRRLGKLTQGTTLTVVGPPGEWLKIEYKGETGFVYASYTSLG | -2.01
64 | HMTPTVEAAKEEVLRVLASAAPRGLTRTELEAEVSFRRTKLRDTLVELERIGRIDSVGRRGNATTYRLIG | -1.44
65 | HMTPVEVNARGVHVDFSKGGILLEDVVRHLILEALRASEWKRGPAAQLLGISKETLRYRMEKYRLYPP | -2.43
66 | HMTPYEVLVYESLKQKILSGGYAAGEKIPEQSVSEELGVSRSPLRSAIRRLASEGLIEYYPYRGAFVKA | -1.06
67 | HMTQEAMRSLRKSLQNLSSRQQVIFMLRHYEGLALKEIAEHLGLETGTVKAHLHRAVTQLRKDLVE | -1.85
68 | HMTQHDIVPLMLKMVDVLTQFVELDIPFLQQERQTRLAALNAMMGRADVSLAEKYRRIMEAYQVETEYG | -0.0856
69 | HMTQLEVDLFERLITISGVGPRLALAVLSGLEPPDLLRAIQDSDIVRLQGIPGVGKKTAERISLELKDKLS | -1.35
70 | HMTQQYVEWKVYNVTTIKNKYGFRVKLIFQDGSDATQQKGGFTSKKAAEQARTEVIGQLYSNTYVVY | -4.59
